Reference: patent US20100047163A1 (LAWRENCE BERKELEY NATIONAL LABORATORY, published 2010)
“And” between values parts separate entries of the source, which are not always exact repeats. Equal entries are not always repeated.

B1: LDL receptor (LDLR) on human glioblastoma multiforme cells (receptor)
chain: not shown
notes: whole, on cells; also called cell surface LDLR

How the values were obtained:
[1] = target: B1; experiment: cell-based or functional assay
[2] = target: T1, native plasma LDL (low density lipoprotein; LDLR ligand apoB100 on its surface) (human, UniProt P04114 28-4563); experiment: ^125I-LDL saturation binding to SF-539 cells
T1 construct: Lipoprotein particle isolated from plasma; also called native LDL

[3] = target: T1, native plasma LDL (low density …); experiment: ^125I-LDL saturation binding to SF-767 cells
[4] = target: T1, native plasma LDL (low density …); experiment: ^125I-LDL saturation binding to A-172 cells
[5] = target: T1, native plasma LDL (low density …); experiment: ^125I-LDL saturation binding to U-251 MG cells (average of 2 experiments)
[6] = target: T1, native plasma LDL (low density …); experiment: ^125I-LDL saturation binding to SF-763 cells
[7] = target: T1, native plasma LDL (low density …); experiment: ^125I-LDL saturation binding to U-343 MG cells

T1 sequence (P04114 28-4563 limits assumed): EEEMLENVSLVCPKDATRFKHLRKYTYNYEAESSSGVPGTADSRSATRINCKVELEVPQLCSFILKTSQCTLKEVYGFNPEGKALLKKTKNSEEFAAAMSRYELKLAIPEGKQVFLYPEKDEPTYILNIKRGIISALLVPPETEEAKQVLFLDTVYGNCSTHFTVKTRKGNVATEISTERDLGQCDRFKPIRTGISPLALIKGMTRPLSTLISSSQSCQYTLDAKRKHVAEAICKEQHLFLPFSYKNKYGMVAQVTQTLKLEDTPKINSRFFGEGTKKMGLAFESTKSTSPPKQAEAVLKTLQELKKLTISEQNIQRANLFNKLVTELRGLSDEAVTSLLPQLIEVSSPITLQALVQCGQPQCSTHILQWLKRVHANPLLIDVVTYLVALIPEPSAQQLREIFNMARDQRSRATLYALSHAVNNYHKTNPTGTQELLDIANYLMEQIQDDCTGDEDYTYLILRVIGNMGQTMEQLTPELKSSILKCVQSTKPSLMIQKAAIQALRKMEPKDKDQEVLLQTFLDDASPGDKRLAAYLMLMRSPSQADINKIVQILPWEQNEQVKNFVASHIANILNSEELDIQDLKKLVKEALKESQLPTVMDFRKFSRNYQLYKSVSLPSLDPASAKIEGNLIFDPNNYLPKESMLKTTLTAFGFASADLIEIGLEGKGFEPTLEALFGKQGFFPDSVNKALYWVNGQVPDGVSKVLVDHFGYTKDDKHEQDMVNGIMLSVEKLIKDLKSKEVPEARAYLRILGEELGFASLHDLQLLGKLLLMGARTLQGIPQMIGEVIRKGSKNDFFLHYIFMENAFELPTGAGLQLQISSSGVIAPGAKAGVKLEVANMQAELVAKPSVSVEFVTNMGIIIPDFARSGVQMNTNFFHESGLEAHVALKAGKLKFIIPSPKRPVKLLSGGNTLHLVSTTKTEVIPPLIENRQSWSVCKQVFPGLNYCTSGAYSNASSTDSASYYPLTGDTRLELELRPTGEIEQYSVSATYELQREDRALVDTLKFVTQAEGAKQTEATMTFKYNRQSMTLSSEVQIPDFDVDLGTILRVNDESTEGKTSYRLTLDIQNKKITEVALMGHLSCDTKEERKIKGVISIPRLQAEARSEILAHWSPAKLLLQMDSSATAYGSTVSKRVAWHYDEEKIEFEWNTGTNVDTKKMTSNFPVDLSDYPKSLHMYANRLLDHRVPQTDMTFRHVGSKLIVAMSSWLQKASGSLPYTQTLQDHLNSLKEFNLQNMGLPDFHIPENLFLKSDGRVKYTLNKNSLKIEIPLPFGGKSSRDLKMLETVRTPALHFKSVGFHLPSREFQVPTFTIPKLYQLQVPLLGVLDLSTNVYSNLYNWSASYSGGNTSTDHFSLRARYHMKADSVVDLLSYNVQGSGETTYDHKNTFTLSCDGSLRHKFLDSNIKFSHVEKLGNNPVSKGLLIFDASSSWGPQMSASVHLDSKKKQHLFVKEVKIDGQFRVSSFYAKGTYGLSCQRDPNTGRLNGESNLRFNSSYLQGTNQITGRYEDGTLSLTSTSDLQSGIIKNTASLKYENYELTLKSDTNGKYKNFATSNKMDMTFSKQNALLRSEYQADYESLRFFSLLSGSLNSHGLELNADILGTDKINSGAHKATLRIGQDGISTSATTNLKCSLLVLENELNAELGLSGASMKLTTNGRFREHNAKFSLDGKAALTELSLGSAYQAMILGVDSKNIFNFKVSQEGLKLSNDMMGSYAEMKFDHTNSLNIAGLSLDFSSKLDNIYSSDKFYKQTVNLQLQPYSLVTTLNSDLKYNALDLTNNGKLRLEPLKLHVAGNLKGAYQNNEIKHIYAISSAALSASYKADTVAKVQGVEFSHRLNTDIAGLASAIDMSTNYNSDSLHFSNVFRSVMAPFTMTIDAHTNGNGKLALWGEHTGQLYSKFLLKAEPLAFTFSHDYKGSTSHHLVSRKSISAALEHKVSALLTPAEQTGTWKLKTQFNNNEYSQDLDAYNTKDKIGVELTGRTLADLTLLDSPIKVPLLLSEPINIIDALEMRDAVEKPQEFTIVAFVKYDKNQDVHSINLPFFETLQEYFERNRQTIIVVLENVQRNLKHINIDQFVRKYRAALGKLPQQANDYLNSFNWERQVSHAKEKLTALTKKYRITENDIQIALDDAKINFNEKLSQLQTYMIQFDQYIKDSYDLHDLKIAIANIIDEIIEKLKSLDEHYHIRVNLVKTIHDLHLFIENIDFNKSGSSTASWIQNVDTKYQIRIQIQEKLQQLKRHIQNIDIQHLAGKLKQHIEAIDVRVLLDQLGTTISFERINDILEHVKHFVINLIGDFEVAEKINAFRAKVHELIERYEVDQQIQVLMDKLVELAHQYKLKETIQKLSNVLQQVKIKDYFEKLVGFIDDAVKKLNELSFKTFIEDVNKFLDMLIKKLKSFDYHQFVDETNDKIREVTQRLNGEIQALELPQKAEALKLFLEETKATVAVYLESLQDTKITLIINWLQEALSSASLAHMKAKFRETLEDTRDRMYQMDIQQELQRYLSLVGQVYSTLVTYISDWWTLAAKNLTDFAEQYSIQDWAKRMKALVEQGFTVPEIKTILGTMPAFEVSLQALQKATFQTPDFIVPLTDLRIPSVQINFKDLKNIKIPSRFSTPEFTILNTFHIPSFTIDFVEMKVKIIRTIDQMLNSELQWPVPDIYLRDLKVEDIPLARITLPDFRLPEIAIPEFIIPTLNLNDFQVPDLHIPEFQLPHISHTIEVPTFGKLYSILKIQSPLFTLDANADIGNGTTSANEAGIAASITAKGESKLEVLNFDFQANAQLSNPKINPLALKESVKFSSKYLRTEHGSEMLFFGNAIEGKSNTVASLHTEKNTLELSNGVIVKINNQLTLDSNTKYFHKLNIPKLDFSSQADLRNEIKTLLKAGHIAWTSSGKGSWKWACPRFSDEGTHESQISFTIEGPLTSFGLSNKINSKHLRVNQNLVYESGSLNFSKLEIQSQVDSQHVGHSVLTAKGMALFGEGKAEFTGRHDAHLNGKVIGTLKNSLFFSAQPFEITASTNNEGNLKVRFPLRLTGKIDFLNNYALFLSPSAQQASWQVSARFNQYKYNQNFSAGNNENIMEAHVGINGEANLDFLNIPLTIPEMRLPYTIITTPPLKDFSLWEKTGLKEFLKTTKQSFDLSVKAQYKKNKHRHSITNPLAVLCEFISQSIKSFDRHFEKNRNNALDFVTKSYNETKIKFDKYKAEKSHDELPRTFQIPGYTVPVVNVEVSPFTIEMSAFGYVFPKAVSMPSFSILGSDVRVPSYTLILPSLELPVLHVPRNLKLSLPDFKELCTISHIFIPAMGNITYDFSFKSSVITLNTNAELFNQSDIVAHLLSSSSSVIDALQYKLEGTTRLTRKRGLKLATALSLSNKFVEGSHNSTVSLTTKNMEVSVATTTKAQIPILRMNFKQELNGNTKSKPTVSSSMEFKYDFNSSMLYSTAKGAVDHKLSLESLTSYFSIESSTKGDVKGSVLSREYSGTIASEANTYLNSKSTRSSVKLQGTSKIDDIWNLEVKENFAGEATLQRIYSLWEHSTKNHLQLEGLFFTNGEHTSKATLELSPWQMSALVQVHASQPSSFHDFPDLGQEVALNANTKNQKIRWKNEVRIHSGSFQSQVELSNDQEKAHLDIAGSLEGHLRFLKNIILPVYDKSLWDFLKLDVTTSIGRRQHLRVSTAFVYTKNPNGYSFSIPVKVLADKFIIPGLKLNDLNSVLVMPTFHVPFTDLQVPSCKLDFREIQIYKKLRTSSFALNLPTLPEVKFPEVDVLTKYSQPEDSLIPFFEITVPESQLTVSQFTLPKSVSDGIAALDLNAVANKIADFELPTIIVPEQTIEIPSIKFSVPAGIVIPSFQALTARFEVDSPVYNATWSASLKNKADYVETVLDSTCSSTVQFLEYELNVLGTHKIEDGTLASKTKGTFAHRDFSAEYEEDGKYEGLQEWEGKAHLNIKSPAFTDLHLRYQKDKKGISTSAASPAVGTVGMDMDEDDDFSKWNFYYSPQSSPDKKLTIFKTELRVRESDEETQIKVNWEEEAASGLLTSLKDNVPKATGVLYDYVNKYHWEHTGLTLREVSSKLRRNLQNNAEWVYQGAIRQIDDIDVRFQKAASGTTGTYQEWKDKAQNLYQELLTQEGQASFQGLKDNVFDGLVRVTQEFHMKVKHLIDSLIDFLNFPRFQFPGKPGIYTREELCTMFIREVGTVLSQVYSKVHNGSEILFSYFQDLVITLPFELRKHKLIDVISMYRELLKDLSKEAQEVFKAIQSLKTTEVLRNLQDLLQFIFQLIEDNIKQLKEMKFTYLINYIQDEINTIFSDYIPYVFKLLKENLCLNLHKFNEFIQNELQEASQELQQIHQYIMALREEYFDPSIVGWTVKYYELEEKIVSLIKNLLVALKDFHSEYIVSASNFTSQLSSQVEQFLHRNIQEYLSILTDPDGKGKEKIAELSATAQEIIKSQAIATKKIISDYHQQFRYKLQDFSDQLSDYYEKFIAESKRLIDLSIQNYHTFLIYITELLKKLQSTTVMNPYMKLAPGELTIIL

| Binder | IC50 of SF-763 cell killing, 6 hrs incubation with sLDL-PO, 72 hr total [1] [µM] | IC50 of SF-767 cell killing, 1 hr incubation with sLDL-PO, 72 hr total [1] [µM] | IC50 of SF-767 cell killing, 3 hr incubation with sLDL-PO, 72 hr total [1] [µM] | IC50 of SF-767 cell killing, 6 hr incubation with sLDL-PO, 72 hr total [1] [µM] | IC50 of SF-767 cell killing, 6 hrs incubation with sLDL-PO, 72 hr total [1] [µM] | IC50 of SF-767 cell killing, 12 hr incubation with sLDL-PO, 72 hr total [1] [µM] | IC50 of U-251 cell killing, 6 hrs incubation with sLDL-PO, 72 hr total [1] [µM] | Kd [2] | Kd [3] | Kd [4] | Kd [5] | Kd [6] | Kd [7] |
| --- | --- | --- | --- | --- | --- | --- | --- | --- | --- | --- | --- | --- | --- |
| Ac-DWLKAFYDKVAEKLKEAFRLTRKRGLKLA-NH2 (also: sLDL particle with paclitaxel oleate in lipid core, not covalently bound) [synthetic LDL containing paclitaxel oleate (sLDL-PO)] | 2 | 20 | 15 | 10 | 7 | 10 | 7 | – | – | – | – | – | – |
| B1 | – | – | – | – | – | – | – | 50 µg/mL and 100 nM | 3.5 µg/mL and 6.98 nM | 62 µg/mL and 124 nM | 38 µg/mL and 76 nM | 60 µg/mL and 120 nM | 40 µg/mL and 80 nM |
